The RNAGym collection of RNA variant scans (doi:10.1073/pnas.2313332121)

B1: TPR t1 (parent)
chain: GACCAAUCUGCCCUCAGAGCUCGAGAACAUCUUCGGAUGCAGAGGAGGCAGGCUUCGGUGGCGCGAUAGCGCCAACGUCCUCAACCUCCAAUGCAUCCCACCACAUGAUGAUGCCUGAAGAGCCUUGGUUUUUUG

Variants of: B1
Test: polymerase ribozyme fitness, log enrichment relative to wild type (log ratio); higher = more active; in vitro selection for triplet polymerase activity
Outline: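 Both subunits of a heterodimeric triplet polymerase ribozyme were given their own mutant library, built by PCR and transcribed. Each library was annealed with a biotinylated primer, the partner subunit and triplets, incubated frozen at −7 °C, and its extended constructs gel-excised, captured on streptavidin beads and amplified by RT-PCR, all in one round done in triplicate. Fitness is the logarithm of genotype enrichment relative to wild-type enrichment, with replicates averaged by inverse-variance weighting. That logarithm is base 2, and Illumina-sequenced genotypes needed ≥10 input reads and ≥1 read per output.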

Variant	polymerase ribozyme fitness (log ratio)
C8A U21A A46U	-1.03
A5G C13G G51A U112C	-1.39
C49G C53A C94U U116G	-2.47
A46C C53A A95C G128C	-3.03
C8A C28G C102A U109A	-4.85
A74U C88A C104A	-2.72
C28G G57U	-2.76
G10U C56A C73G	-2.43
G60A U87G C101U	0.254
C40A A43U C89U C102U U106C C123A	-6.44
G17C	-3.67
U106C G127C	-1.07
C8G U21A C76G C99A U112A	-5.05
G48A C62A U81A	-3.27
G51U C104A U133G	-5.02
G48C C115A A121U	0.474
C15A C123U	-1.1
G42U U55A C56G G77C C115A	-1.05
C12A G19U G23U G47A G52C G69U G110C	-7.34
C34U G47C A66C G71A G110C U129C	-6.98
G57U C94A C98U C115U	-5.64
C40U G60C U96G A118G	-1.31
C104A U133A	-1.68
U9A C13U C62A C79G C94A U132A	-4.57

Variant	polymerase ribozyme fitness (log ratio)
C11G G19A A43U	-1.81
A91C C123A	-1.1
C22U C53U	-4.37
C8G C85A C124U	1.24
G47U G117A	-3.33
C13U G51U G60U C97U A119G G127U	-2.62
C13U U109C	-2.24
C3U C13U G44U U55C G63A A108U U112G G113C	-6.03
G19C G52A A119U	-3.63
C12G C73U C97A	-4.85
G57A G93C U130G	-3.23
A26U G48C A50U C53U	-4.37
C62A A105C	-3.71
A6U C53A C97U G113A	-1.91
A43U U78C G93A	-1.95
G42A U106A G120U U132A	-2.41
C76A G127U	-2.17
G110U A119U	-1.65
C15G U32C G36C C49G U59C G120C	-4.02
A27G A41G C86A	-2.64
C12A G47C C49A U125A	-2.88
C22U G71C	-4.89
C12A G69U G128C	-1.9
C3U G44U C73G U125A	-2.29

Variant	polymerase ribozyme fitness (log ratio)
C49A C72A C94A	-0.633
U32C C34U G39C	-5.23
G69A G107C U112A	-6.47
C49A C70A	-1.29
A74U U92A	-3.82
A66C G69C C97G C101A G107A U112G U130G	-6.88
G10A C22G G61U A95U	-3.63
G47U C53U C104U	-1.72
G48A A95G U132A	-1.21
C15A C70G	-3.97
G19A A121C	-1.3
U106C U116A	-2.94
A5C C8G C11A A37U C123U	0.423
G42U G60A G128C	-3.97
G17C C56U C89U	-3.95
C13G C56U C85A	-3.69
A6U G48U U81C A121G	0.747
C70U A111U	-4.03
C4U C53U C64U A84G	-1.67
G48A G63A C97A U112C	-4.92
C72A U125A	-0.026
A6G C82G U87A A90U	-2.92
C3U C94G C114A U125A	-4.28
C3U C124A	1.2

Variant	polymerase ribozyme fitness (log ratio)
G52C G69A	-3.55
U116G U125A	-2.37
G10U C40G C124U U129A	-1.91
A46U C70A	-2.18
A6G C102A	-1.96
U30G C72U C80A A108C	-2.77
C8U C13A C20A G113A C123G	-1.33
C13G A24G G48A G63C C86G U109A	-6.58
C12A C62A U78G	-2.28
C40G G48A C64U C104A U109A C114A U130A	-5.98
C12A U32C G45A U132A	-1.76
U78C U87A C98U	-1.12
G39C C56G C72U	-1.49
C97G C101U A121C	-2.97
C28G C56G C86U C124U	-1.07
C22A G60A	-4.26
A83U U132C	-0.0917
C72G C85U C102U C104A A105G	-7.34
C12U A37C	-0.693
C82G A119G	0.749
A29G U81C A100U	-3.08
U33C G69A A83C U96C A119U C124A G127U	-5.27
A121U	2.12
G36U G63A C85A	-3.57

Variant	polymerase ribozyme fitness (log ratio)
A84C U96C A121G U125A	1.66
A2G A6G C8A A46C U87C	-0.00636
C4G U112G	-0.359
C56U C101A	-1.79
A2G C8U	0.157
U9G C12G U78C	0.323
G47U C88A	-6.05
C15U U30G C53G G71C U78G U106A	-4.3
G42A G52C	-2.26
G19U C70A	-4.07
G44A C53U C82U G117A C124A	-1.14
C3A C12U C102A	-1.7
A5U G48C	-2.24
C82G A91C C115G	-2.49
C49G G110A A121C	-1.76
U7G G69U C76G A95U	-1.74
U9G G19U G44A G58C	-3.46
C98U G120A	-0.67
G10U C88G G110C	-5.78
A24U G47A G52A G61A C101G C114G G122A	-7.25
C8G C86G C114A	0.194
C11U G35A A37U C124A U132A	-4.07
C13U C31A	-5.19
A68G A83C U96G U106A A121C	-1.7

Variant	polymerase ribozyme fitness (log ratio)
G71C C101A A121U U126G	-0.863
U9A C15A C56G C70U C76U G120C G122U U129C	-6.98
C12U A27G C70U C88A C123G U126A	-2.52
C13U G47U C88U A90G U106G	-2.13
U9A C20G C64A U112A G128A	-5.8
C53G C62U	-0.0991
A46U A74U A119G	0.444
A5U C28U A37U C104U C123G	-3.39
C40G C89G G93A	-2.6
C53G C62A	-1.3
C73U G128U	-1.62
G39U C72U	-1.72
C49A C79A	-3.94
C82G C89A	-2.23
A41G C49G U55A C73U A111C	-2.46
C64U C89A	-1.58
C99A C123U	-6.27
G48U C79U	-2.53
G61U U78A G128C	-2.72
C56U U87C C94U A95C G113A	-2.65
A6G A41C C76U C115U U130A U133A	-2.77
C15U C73U C85G	-1.89
C64A	-6.28
G58U C86U G110U G122A	-3.85

Variant	polymerase ribozyme fitness (log ratio)
C12G C102U A119G C124U U125A	-0.278
G45U A74C G77A U112C	1.05
C53U C76U G128A	-2.11
C12A A83U U106G	-2.32
A84G C102A	-3.38
C12U G47U G63A U129A	-3.16
U7C G44A C79U C86U	-1.45
C11A C89U	-2.53
G36C C94U C97U	-1.57
C40U G110U	-2.35
U59G C72G	-2.51
A84U G113A U132C G135A	-1.31
U7G C12G C49A G69U	1.21
A29U G44U G45A	-4.25
G77A C115U G128A	-3.21
C40A C80A G93U C101A	-3.95
C12G G35A A37U G63C	-5.96
C11G A16G G71U C101A G128U	-3.82
G69A U106A	-2.76
C82U A83G C101U	-0.587
U59C C79U C114U	-1.91
C8G C11U G52U U81G U92C A119G U133A	-5.64
C12U C56A G113A	-0.59
